Reference: patent US20130059806A1 (REGENTS OF THE UNIVERSITY OF MICHIGAN, published 2013)

T1: TR4 (mouse, UniProt P49117 1-596)
T1 construct: Endogenous protein, immunoprecipitated or detected with a rabbit polyclonal antibody; also called NR2C2
T1 sequence (looked up): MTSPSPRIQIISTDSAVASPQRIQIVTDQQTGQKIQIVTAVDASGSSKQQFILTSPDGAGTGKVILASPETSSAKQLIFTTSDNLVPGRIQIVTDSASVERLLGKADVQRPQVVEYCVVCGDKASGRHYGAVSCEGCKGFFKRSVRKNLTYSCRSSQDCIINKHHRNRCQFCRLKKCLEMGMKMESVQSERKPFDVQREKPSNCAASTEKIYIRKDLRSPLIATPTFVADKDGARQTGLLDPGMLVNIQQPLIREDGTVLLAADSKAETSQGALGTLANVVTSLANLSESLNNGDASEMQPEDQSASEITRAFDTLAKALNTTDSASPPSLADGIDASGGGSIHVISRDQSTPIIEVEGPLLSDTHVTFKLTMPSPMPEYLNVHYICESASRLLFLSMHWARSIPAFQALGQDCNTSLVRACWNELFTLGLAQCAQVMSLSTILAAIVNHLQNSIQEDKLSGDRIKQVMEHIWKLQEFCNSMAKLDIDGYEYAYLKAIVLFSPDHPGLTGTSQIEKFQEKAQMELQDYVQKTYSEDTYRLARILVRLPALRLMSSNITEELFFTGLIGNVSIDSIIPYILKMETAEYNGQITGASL

B1: transcriptional intermediary factor (TIF)-1beta (other, mouse, UniProt Q62318 2-834, looked up)
chain: AASAAATAAASAATAASAASGSPGSGEGSAGGEKRPAASSAAAASAAASSPAGGGGEAQELLEHCGVCRERLRPERDPRLLPCLHSACSACLGPATPAAANNSGDGGSAGDGAMVDCPVCKQQCYSKDIVENYFMRDSGSKASSDSQDANQCCTSCEDNAPATSYCVECSEPLCETCVEAHQRVKYTKDHTVRSTGPAKTRDGERTVYCNVHKHEPLVLFCESCDTLTCRDCQLNAHKDHQYQFLEDAVRNQRKLLASLVKRLGDKHATLQKNTKEVRSSIRQVSDVQKRVQVDVKMAILQIMKELNKRGRVLVNDAQKVTEGQQERLERQHWTMTKIQKHQEHILRFASWALESDNNTALLLSKKLIYFQLHRALKMIVDPVEPHGEMKFQWDLNAWTKSAEAFGKIVAERPGTNSTGPGPMAPPRAPGPLSKQGSGSSQPMEVQEGYGFGSDDPYSSAEPHVSGMKRSRSGEGEVSGLLRKVPRVSLERLDLDLTSDSQPPVFKVFPGSTTEDYNLIVIERGAAAAAAGQAGTVPPGAPGAPPLPGMAIVKEEETEAAIGAPPAAPEGPETKPVLMPLTEGPGAEGPRLASPSGSTSSGLEVVAPEVTSAPVSGPGILDDSATICRVCQKPGDLVMCNQCEFCFHLDCHLPALQDVPGEEWSCSLCHVLPDLKEEDGSLSLDGADSTGVVAKLSPANQRKCERVLLALFCHEPCRPLHQLATDSTFSMEQPGGTLDLTLIRARLQEKLSPPYSSPQEFAQDVGRMFKQFNKLTEDKADVQSIIGLQRFFETRMNDAFGDTKFSAVLVEPPPLNLPSAGLSSQELSGPGDGP
notes: also called TIF1β; TIF113
B2: MTA1 (other, mouse, UniProt Q8K4B0 1-715, looked up)
chain: MAANMYRVGDYVYFENSSSNPYLIRRIEELNKTANGNVEAKVVCFYRRRDISSSLIALADKHATLSVCYRAGPGADTGEEGEVEEEVENPEMVDLPEKLKHQLRHRELFLSRQLESLPATHIRGKCSVTLLNETESLKSYLEREDFFFYSLVYDPQQKTLLADKGEIRVGNRYQADITDLLKEGEEDGRDQSKLETKVWEAHNPLVDKQIDQFLVVARSVGTFARALDCSSSVRQPSLHMSAAAASRDITLFHAMDTLHKNIYDISKAISALVPQGGPVLCRDEMEEWSASEANLFEEALEKYGKDFTDIQQDFLPWKSLTSIIEYYYMWKTTDRYVQQKRLKAAEAESKLKQVYIPNYNKPNPNQISASSVKATVVNGTGTPGQSPGAGRACESCYTTQSYQWYSWGPPNMQCRLCASCWTYWKKYGGLKMPTRLDGERPGPNRNNMSPHGIPARSSGSPKFAMKTRQAFYLHTTKLTRIARRLCREILRPWHAARHPYMPINSAAIKAECTARLPEASQSPLVLKQVVRKPLEAVLRYLETHPRPPKPDPVKSSSSVLSSLTPAKSAPVINNGSPTILGKRSYEQHNGVDGNMKKRLLMPSRGLANHGQTRHMGPSRNLLLNGKSYPTKVRLIRGGSLPPVKRRRMNWIDAPDDVFYMATEETRKIRKLLSSSETKRAARRPYKPIALRQSQALPLRPPPPAPVNDEPIVIED
notes: also called MTA1/2 (with MTA2)
B3: MTA2 (other, mouse, UniProt Q9R190 1-668, looked up)
chain: MAANMYRVGDYVYFENSSSNPYLVRRIEELNKTANGNVEAKVVCLFRRRDISSSLNSLADSNAREFEEESKQPGVSEQQRHQLKHRELFLSRQFESLPATHIRGKCSVTLLNETDILNQYLDKEDCFFYSLVFDPVQKTLLADQGEIRVGCKFQAEIPDRLAEGESDNRNQQKMEMKVWDPDNPLTDRQIDQFLVVARAVGTFARALDCSSSIRQPSLHMSAAAASRDITLFHAMDTLQRNGYDLAKAMSTLVPQGGPVLCRDEMEEWSASEAMLFEEALEKYGKDFNDIRQDFLPWKSLASIVQFYYMWKTTDRYIQQKRLKAAEADSKLKQVYIPTYTKPNPNQIISVGSKPGMNGAGFQKGLTCESCHTTQSAQWYAWGPPNMQCRLCASCWIYWKKYGGLKTPTQLEGAARGTTEPHSRGHLSRPEAQSLSPYTTSANRAKLLAKNRQTFLLQTTKLTRLARRMCRDLLQPRRAARRPYAPINANAIKAECSIRLPKAAKTPLKIHPLVRLPLATIVKDLVAQAPLKPKTPRGTKTPINRNQLTQNRGLGGIMVKRSYETMAGAGVPFSANGRPLASGIRSSSQPAAKRQKLNPADAPNPVVFVATKDTRALRKALTHLEMRRAARRPNLPLKVKPTLMTVRPPVPLPASSHPASTNEPIVLED
notes: also called MTA1/2 (with MTA1)

Legend:
TR4 = target: T1, TR4; test: co-IP from untransfected MEL nuclear extract, immunoblot (summary)
Method: Nuclear extracts were prepared from untransfected, induced MEL cells and incubated with protein G beads coupled with antibodies against proteins shown at the top of the images, or with a control IgG; 150 μg of nuclear extract protein was used for each lane. Immunoprecipitates with the antibody-coupled beads, and 10% of the input (15 μg protein) were subjected to SDS-PAGE followed by immunoblotting with antibodies against proteins shown to the left of the images. For immunoprecipitation, antibodies against TR2, TR4, DNMT1, HDAC3, and TIF113 were used in the left panels.
Antibodies were coupled to Dynabeads protein G (Invitrogen) by incubating for 2 hr at 4° C. with rotation according to the manufacturer's instructions. The beads were then incubated with nuclear extracts (150 μg protein) prepared from untransfected MEL cells for 2 hr at 4° C. After washing the beads with ice-cold phosphate buffered saline (PBS) three times, immunoprecipitated proteins were eluted by boiling in 1× Laemmli sample buffer and then subjected to immunoblotting.

CoREST = CoREST (mouse, UniProt Q8CFE3 1-480); test: co-IP from untransfected MEL nuclear extract, immunoblot
Mi2β = target: T2, Mi2β (mouse, UniProt Q6PDQ2 1-1915); test: as above
T2 construct: also called Mi2beta; Mi213

MTA2 = target: B3; test: as above
[1] = target: B1; test: as above
MTA1 = target: B2; test: as above

T2 sequence (Q6PDQ2 whole entry): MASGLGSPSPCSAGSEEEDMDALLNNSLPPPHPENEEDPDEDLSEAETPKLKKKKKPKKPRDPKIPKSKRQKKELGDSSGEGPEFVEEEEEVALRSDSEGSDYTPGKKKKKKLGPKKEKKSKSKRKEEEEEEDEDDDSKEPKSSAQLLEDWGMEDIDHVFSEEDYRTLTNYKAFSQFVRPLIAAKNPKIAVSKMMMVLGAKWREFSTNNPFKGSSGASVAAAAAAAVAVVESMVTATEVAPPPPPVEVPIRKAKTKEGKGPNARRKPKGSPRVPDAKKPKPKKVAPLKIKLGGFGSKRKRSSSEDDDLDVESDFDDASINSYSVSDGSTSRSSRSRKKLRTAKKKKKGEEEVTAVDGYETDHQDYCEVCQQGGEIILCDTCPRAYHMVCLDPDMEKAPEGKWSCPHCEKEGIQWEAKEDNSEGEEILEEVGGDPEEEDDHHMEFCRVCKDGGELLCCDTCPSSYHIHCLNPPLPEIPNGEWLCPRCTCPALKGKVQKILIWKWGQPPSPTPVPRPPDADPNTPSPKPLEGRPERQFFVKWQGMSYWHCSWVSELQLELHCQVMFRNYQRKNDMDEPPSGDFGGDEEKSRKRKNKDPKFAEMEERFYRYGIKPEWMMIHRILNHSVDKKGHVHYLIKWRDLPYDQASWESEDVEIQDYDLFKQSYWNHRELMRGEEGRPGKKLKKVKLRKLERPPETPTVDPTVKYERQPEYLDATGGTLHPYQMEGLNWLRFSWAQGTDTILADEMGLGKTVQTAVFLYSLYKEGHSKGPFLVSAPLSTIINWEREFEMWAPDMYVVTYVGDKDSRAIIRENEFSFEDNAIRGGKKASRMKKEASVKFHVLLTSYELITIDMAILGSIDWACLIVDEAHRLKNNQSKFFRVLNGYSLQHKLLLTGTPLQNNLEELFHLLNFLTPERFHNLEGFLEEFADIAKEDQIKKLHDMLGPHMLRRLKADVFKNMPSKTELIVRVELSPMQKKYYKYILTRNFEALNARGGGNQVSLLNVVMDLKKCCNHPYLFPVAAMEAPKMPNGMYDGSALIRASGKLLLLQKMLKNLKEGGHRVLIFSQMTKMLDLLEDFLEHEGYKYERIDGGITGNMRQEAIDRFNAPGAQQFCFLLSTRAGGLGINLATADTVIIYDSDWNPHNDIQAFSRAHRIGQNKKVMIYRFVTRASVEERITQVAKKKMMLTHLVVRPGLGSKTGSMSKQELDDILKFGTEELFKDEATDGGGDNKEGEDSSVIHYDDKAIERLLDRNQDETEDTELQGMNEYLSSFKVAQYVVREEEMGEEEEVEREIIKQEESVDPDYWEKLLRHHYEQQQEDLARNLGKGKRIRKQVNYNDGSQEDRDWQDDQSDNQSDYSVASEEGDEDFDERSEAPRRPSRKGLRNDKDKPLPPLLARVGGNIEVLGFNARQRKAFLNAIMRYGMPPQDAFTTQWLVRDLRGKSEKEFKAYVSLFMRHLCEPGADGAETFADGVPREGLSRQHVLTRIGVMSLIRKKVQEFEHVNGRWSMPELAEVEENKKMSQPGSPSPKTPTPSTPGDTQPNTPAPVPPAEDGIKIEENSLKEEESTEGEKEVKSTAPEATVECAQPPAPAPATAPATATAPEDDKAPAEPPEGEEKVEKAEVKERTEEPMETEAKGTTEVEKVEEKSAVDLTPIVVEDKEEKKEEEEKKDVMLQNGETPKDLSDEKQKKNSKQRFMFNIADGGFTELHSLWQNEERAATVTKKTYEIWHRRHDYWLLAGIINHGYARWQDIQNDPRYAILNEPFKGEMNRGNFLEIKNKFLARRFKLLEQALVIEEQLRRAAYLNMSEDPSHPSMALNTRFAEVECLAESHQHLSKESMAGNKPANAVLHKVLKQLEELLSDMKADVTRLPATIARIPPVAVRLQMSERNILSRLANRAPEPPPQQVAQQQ
Chain of CoREST (Q8CFE3 whole entry): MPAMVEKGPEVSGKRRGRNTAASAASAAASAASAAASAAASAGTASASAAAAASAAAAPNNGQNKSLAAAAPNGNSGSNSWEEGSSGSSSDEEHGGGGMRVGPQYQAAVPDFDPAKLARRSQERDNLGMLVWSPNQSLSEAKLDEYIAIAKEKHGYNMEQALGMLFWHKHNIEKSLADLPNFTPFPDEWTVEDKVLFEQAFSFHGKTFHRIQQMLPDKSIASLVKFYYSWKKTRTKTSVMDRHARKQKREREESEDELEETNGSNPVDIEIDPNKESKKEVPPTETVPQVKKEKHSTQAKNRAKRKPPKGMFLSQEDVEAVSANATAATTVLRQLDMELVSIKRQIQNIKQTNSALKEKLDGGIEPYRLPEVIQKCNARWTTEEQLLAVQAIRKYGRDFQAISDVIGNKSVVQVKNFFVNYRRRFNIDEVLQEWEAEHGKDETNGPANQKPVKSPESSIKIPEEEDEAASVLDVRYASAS

binding result (Mi2β)	binding result [1]	Binder	also measured
–	–	TR2 (receptor, mouse, UniProt Q505F1 1-590, looked up, Endogenous protein, immunoprecipitated or detected with a rabbit polyclonal antibody; also called NR2C1) MATIEEIAHQIIDQQMGEIVTEQQTGQKIQIVTALDHSTQGKQFILANHEGSTPGKVFLTTPDAAGVNQLFFTSPDLSAPHLQLLTEKSPDQGPNKVFDLCVVCGDKASGRHYGAITCEGCKGFFKRSIRKNLVYSCRGSKDCVINKHHRNRCQYCRLQRCIAFGMKQDSVQCERKPIEVSREKSSNCAASTEKIYIRKDLRSPLAATPTFVTDSETARSAGLLDSGMFVNIHPSGIKTEPAMLMAPDKAESCQGDLSTLASVVTSLANLGKAKDLSHCGGDMPVVQSLRNGDTSFGAFHHDIQTNGDVSRAFDTLAKALTPGESSACQSPEEGMEGSPHLIAGEPSFVEKEGPLLSESHVAFRLTMPSPMPEYLNVHYIGESASRLLFLSMHWALSIPSFQALGQENSISLVKAYWNELFTLGLAQCWQVMNVATILATFVNCLHSSLQQDKMSPERRKSLMEHIFKLQEFCNSMVKLCIDGHEYAYLKAIVLFSPDHPGLENMELIERFQEKAYVEFQDYITRTYPDDTYRLSRLLLRLPALRLMNATITEELFFKGLIGNVRIDSVIPHILKMEPADYNSQIIGHSL	binding result (TR4): binds
no binding	no binding	HDAC3 (enzyme, mouse, UniProt O88895 1-428, looked up) MAKTVAYFYDPDVGNFHYGAGHPMKPHRLALTHSLVLHYGLYKKMIVFKPYQASQHDMCRFHSEDYIDFLQRVSPTNMQGFTKSLNAFNVGDDCPVFPGLFEFCSRYTGASLQGATQLNNKICDIAINWAGGLHHAKKFEASGFCYVNDIVIGILELLKYHPRVLYIDIDIHHGDGVQEAFYLTDRVMTVSFHKYGNYFFPGTGDMYEVGAESGRYYCLNVPLRDGIDDQSYKHLFQPVISQVVDFYQPTCIVLQCGADSLGCDRLGCFNLSIRGHGECVEYVKSFNIPLLVLGGGGYTVRNVARCWTYETSLLVEEAISEELPYSEYFEYFAPDFTLHPDVSTRIENQNSRQYLDQIRQTIFENLKMLNHAPSVQIHDVPADLLTYDRTDEADAEERGPEENYSRPEAPNEFYDGDHDNDKESDVEI	binding result (CoREST): no binding; binding result (MTA2): no binding; binding result (MTA1): no binding
no binding	–	B1	–
–	no binding	B2	–
–	no binding	B3	–
